In assay [1] the target is CD47 on mouse erythrocytes (wild type and SAD transgenic mice) (mouse) (UniProt Q61735). In words: cell-based or functional assay.
The target is the same in assay [2]. Nature of the assay: flow cytometry of fresh mouse erythrocytes stained with the FITC-coupled antibody.
The target in assay [3] is T1, CD47 on mouse erythrocytes (wild type and SAD transgenic mice) (mouse, UniProt Q61735 19-303).
T1 sequence (looked up): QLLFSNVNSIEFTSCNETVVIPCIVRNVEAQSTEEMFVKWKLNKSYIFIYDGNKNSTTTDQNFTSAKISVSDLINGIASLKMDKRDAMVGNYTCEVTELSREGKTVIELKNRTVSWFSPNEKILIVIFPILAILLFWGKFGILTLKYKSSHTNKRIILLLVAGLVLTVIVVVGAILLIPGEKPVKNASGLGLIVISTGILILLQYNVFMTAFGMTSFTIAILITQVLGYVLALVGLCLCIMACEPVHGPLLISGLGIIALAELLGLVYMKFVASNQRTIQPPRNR
In words: cell-based or functional assay.

Where “and” joins values, the source holds several entries; their conditions need not be identical. Equal values may be shown once.

Consider “Human recombinant TSP1 (thrombospondin-1) (from UniProt P07996 19-1170) (ligand)”, for which, in assay [1], the echinocytes among SAD mouse erythrocytes under shear is 50%; the proportion of echinocytes among wild type mouse erythrocytes under shear is > 10 fold and 30%.

For the molecule “mouse-specific fluoroisothiocyanate (FITC)-coupled anti-CD47 monoclonal antibody (clone mIAP301; BD Biosciences)”, in assay [2], the CD47 expression by FACS (percent) was 85%.

For RFYVVMWK [4N1-1 synthetic peptide (RFYVVMWK), TSP1 carboxyterminal peptide], in assay [3], the “MP shedding by SAD mouse erythrocytes” value was determined as 40 fold, the “MP shedding by wild type mouse erythrocytes” value was 16 fold and the “echinocytosis of wild type mouse erythrocytes” value amounted to 2 fold.

For the origin of these results see US20140044735A1 (ISNERM INSTITUT NATIONAL DE LA SANTE ET DE LA RECHERCHE …, published 2014).
